We go through eight molecules from patent US11202837B2, “Biological materials and uses thereof” (Antikor Biopharma Limited, priority 2014, dated 2021).

The test system of experiment [1] is SKBr3 cells. Kind of experiment: Cell killing assay (MTS), SKBr3 cells. The class given is cell-based, human. Here is the method: (§1) SKBr3, human breast cancer cell line, high HER2 expression levels, up to 1,000,000 receptors per cell [Lazar G A, et al Proc Natl Acad Sci USA. […] When confluency was 70-80%, cells were washed with PBS (2×10 ml) and incubated with trypsin for 5-7 min. Complete media was added and the cells were resuspended by pipetting. The cells were recovered by centrifugation (2 min, 2000 rpm), the supernatant was discarded, and the cells were resuspended in complete DMEM (5 ml). The cells were then counted using a haemocytometer and diluted accordingly. They were plated at 4500 cells/well (200 μl) using attachment factor and incubated overnight at 37° C., 5% CO2 in a humidified atmosphere. U87 is a non-HER2 expressing glioblastoma cell line and was grown in a similar way, plated at 1000 cells/well.
[…] Cell viability was measured using the Promega Aqueous Cell-titre-96™ aqueous one solution cell proliferation kit according to manufacturer's instructions. Briefly, the media was removed and 100 μl of complete phenol red free media, pre-combined with MTS reagent, was added to the cells (20 μl of reagent per 100 μl of media). The plates were read on an ELISA plate reader at 490 nm after a 2 hr incubation in the dark (5% CO2, 37° C.).
(§2) The data (absorption units) were converted to % cell survival by using the untreated controls as the 100% cell survival and the Triton X-100 controls as the 100% cell death. The average absorption value for the latter was subtracted from all the rest of the data in order to get a suitable baseline. The averages were converted to survival and standard error values were obtained for each n value (as a % cell survival). […] Experiments were repeated at least 3 times for each compound tested and a set or an average of the data was plotted and fitted to obtain a dose response curve.
(§3) The cells were recovered by centrifugation (2 min, 2000 rpm), the supernatant was discarded, and the cells were resuspended in complete McCoy's 5A (5 ml). The cells were then counted using a haemocytometer and diluted accordingly. They were plated at 5000 cells/well (200 μl) using attachment factor and incubated overnight at 37° C., 5% CO2 in a humidified atmosphere. U87 is a non-HER2 expressing glioblastoma cell line [Zitron I M et al (2013) BMC Cancer 13:83] and was grown in a similar way, plated at 1000 cells/well (using DMEM media). BT474 is a HER2 expressing breast cancer cell line [Brockhoff G et al (2007) Cell Prolif 40:488-507] and was grown in a similar way, plated at 7500 cells/well (using RPMI media). NCI-N87 is a HER2 expressing gastric cancer cell line [Yamashita-Kashima Y et al (2013) Oncol. Rep 30:1087-93] and was grown in a similar way, plated at 7500 cells/well (using RPMI media).
[…] Cell viability was measured using the Promega Aqueous Cell-titre-96™ aqueous one solution cell proliferation kit (MTS reagent) according to manufacturer's instructions. Briefly, the media was removed and 100 μl of complete phenol red free media, pre-combined with MTS reagent, was added to the cells (20 μl of reagent per 100 μl of media). The plates were read on an ELISA plate reader at 490 nm after a 2 hr incubation in the dark (5% CO2, 37° C.).
(§4) The data (absorption units) were converted to % cell survival by using the untreated controls as the 100% cell survival and the Triton X-100 controls as the 100% cell death. The average absorption value for the latter was subtracted from all the rest of the data in order to get a suitable baseline. The averages were converted to survival and standard error values were obtained for each n value (as a % cell survival).

Experiment [2] has as its system U87 cells. The experiment is described as follows: Cell killing assay (MTS), U87 cells. The class given is cell-based. Here is the method: as §1
The cells were exposed to the various ADCs diluted in complete media for 96 hours at 37° C., 5% CO2 in a humidified atmosphere. Cell viability was measured using the Promega Aqueous Cell-titre-96™ aqueous one solution cell proliferation kit according to manufacturer's instructions. Briefly, the media was removed and 100 μl of complete phenol red free media, pre-combined with MTS reagent, was added to the cells (20 μl of reagent per 100 μl of media). The plates were read on an ELISA plate reader at 490 nm after a 2 hr incubation in the dark (5% CO2, 37° C.).
as §2, §3
(§5) The cells were exposed to the various ADCs diluted in complete media for 96 hours at 37° C., 5% CO2 in a humidified atmosphere. Cell viability was measured using the Promega Aqueous Cell-titre-96™ aqueous one solution cell proliferation kit (MTS reagent) according to manufacturer's instructions. Briefly, the media was removed and 100 μl of complete phenol red free media, pre-combined with MTS reagent, was added to the cells (20 μl of reagent per 100 μl of media). The plates were read on an ELISA plate reader at 490 nm after a 2 hr incubation in the dark (5% CO2, 37° C.).
as §4

Experiment [3] relates to BT474 cells. Kind of experiment: Cell killing assay (MTS), BT474 cells. The class given is cell-based, human. The method, then:
as §3, §5
The data (absorption units) were converted to % cell survival by using the untreated controls as the 100% cell survival and the Triton X-100 controls as the 100% cell death. The average absorption value for the latter was subtracted from all the rest of the data in order to get a suitable baseline. The averages were converted to survival and standard error values were obtained for each n value (as a % cell survival). […] Experiments were repeated at least 3 times for each compound tested and a set or an average of the data was plotted and fitted to obtain a dose-response curve.

Where [4] appears, read: SKBr3 Cells (HER2 +++), 96 hours, Table 50.
Where [5] appears, read: U87 Cells (HER2−), 96 hours, Table 50.
Setting [6] is: U87 Cells (HER2−), 96 hours, Table 50, read-out: IC50.

Read-outs that look alike come from different tables or passages of the source. Where a SMILES comes first, the peptide text is derived from it. [ ]: non-standard residue; d: D form. The star is where a group is joined. ξ: configuration not given here. Dolaproine = CO[C@@H]([C@@H]1CCCN1)[C@@H](C)C(=O)O; Dil = CC[C@H](C)[C@H](NC)[C@@H](CC(=O)O)OC; NMe2Val = CC(C)[C@@H](C(=O)*)N(C)C; ξNMe2Val = CC(C)C(C(=O)*)N(C)C; NMeV = CN[CH](C(=O)O)C(C)C; Ava = NCCCCC(=O)O Some results are limits rather than exact numbers.

For orientation: IC50 means the midpoint of a concentration-inhibition curve. As to `CC[C@H](C)[C@@H]([C@@H](CC(=O)N1CCC[C@H]1[C@H](OC)[C@@H](C)C(=O)N[C@@H](Cc1ccccc1)C(=O)O)OC)N(C)C(=O)[C@@H](NC(=O)[C@H](C(C)C)N(C)C)C(C)C` [Free drug Auristatin F] (NMe2Val-V[Dil][Dolaproine]F-OH), the IC50 in experiment [1] (Homo sapiens, SK-BR-3, 96 h, read-out: IC50 pM) is greater than 5500 pM; in experiment [2] (Homo sapiens, U-87 MG, 96 h, read-out: IC50 pM) it was greater than 12500 pM; in experiment [3] (Homo sapiens, BT-474, 96 h, read-out: IC50 pM) it was greater than 2500 pM.
Regarding `CC(C)C(NC(=O)C(C(C)C)N(C)C)C(=O)N(C)C(C(=O)N1CCCC1C(=O)N1CCCC1C(=O)NCCCCC(=O)O)C(C)C` (centres unmarked) [Free P5C5 (acid) drug, P5C5] (ξNMe2Val-V[NMeV]PP[Ava]-OH; configuration not given here), the IC50 in experiment [1] (Homo sapiens, SK-BR-3, 96 h, read-out: IC50 nM SKBr3 Cells (HER2+++)) worked out at 2.2e+06 ± 400000 pM; in experiment [2] (Homo sapiens, U-87 MG, 96 h, read-out: IC50 nM U87 Cells (HER2−)), 7.3e+06 ± 900000 pM.
In the case of `COc1cc2cc(c1Cl)N(C)C(=O)C[C@H](OC(=O)[C@H](C)N(C)C(=O)CCS)[C@]1(C)O[C@H]1[C@H](C)[C@@H]1C[C@@](O)(NC(=O)O1)[C@H](OC)/C=C/C=C(\C)C2` [Free drug DM1], the concentration for half-maximal inhibition (IC50) in experiment [1] (Homo sapiens, SK-BR-3, 96 h, read-out: IC50 nM) was 47600 pM; in experiment [2] (Homo sapiens, U-87 MG, 96 h, read-out: IC50 nM) it was 50700 pM.

B1: scFv (TCT1067)-MMAF DAR 8.7 (conjugate)
scFv: SGSGGSGQVQLVQSGAEVKKPGESLKISCKGSGYSFTSYWIAWVRQMPGKGLEYMGLIYPGDSDTKYSPSFQGQVTISVDKSVSTAYLQWSSLKPSDSAVYFCARHDVGYCTDRTCAAWPEWLGVWGQGTLVTVSSGGGGSGGGGSGGGGSQSVLTQPPSVSAAPGQKVTISCSGSSSNIGNNYVSWYQQLPGTAPKLLIYGHTNRPAGVPDRFSGSKSGTSASLAISGFRSEDEADYYCASWDYTLSGWVFGGGTKLTVLMASMTGGQQMG
In the case of B1, the “IC50 μg/ml” value in experiment [1] (SKBr3 Cells (HER2+++), 96 hours, Table 47) stood at 0.00091 µg/mL; in experiment [3] (BT474 Cells (HER2++), 96 hours, Table 47), 0.001 µg/mL. The IC50 is 32.5 pM in experiment [1] (SKBr3 Cells (HER2+++), 96 hours, Table 47, read-out: IC50) and 35.7 pM in experiment [3] (BT474 Cells (HER2++), 96 hours, Table 47, read-out: IC50).

B2: scFv (TCT1067)-P5C5 DAR 12.5 (conjugate)
scFv: SGSGGSGQVQLVQSGAEVKKPGESLKISCKGSGYSFTSYWIAWVRQMPGKGLEYMGLIYPGDSDTKYSPSFQGQVTISVDKSVSTAYLQWSSLKPSDSAVYFCARHDVGYCTDRTCAAWPEWLGVWGQGTLVTVSSGGGGSGGGGSGGGGSQSVLTQPPSVSAAPGQKVTISCSGSSSNIGNNYVSWYQQLPGTAPKLLIYGHTNRPAGVPDRFSGSKSGTSASLAISGFRSEDEADYYCASWDYTLSGWVFGGGTKLTVLMASMTGGQQMG
With B2, the “IC50 μg/ml” value was 0.04 µg/mL in experiment [1] (SKBr3 Cells (HER2+++), 96 hours, Table 48) and 0.3 µg/mL in experiment [3] (BT474 Cells (HER2++), 96 hours, Table 48). The IC50 amounted to 1420 pM in experiment [1] (SKBr3 Cells (HER2+++), 96 hours, Table 48, read-out: IC50) and 10700 pM in experiment [3] (BT474 Cells (HER2++), 96 hours, Table 48, read-out: IC50).

B3: scFv (TCT1067)-DM1 DAR 5.5 (conjugate)
scFv: SGSGGSGQVQLVQSGAEVKKPGESLKISCKGSGYSFTSYWIAWVRQMPGKGLEYMGLIYPGDSDTKYSPSFQGQVTISVDKSVSTAYLQWSSLKPSDSAVYFCARHDVGYCTDRTCAAWPEWLGVWGQGTLVTVSSGGGGSGGGGSGGGGSQSVLTQPPSVSAAPGQKVTISCSGSSSNIGNNYVSWYQQLPGTAPKLLIYGHTNRPAGVPDRFSGSKSGTSASLAISGFRSEDEADYYCASWDYTLSGWVFGGGTKLTVLMASMTGGQQMG
In the case of B3, the figures for the “IC50 μg/ml” value in experiment [1] (setting [4]) and in experiment [2] (setting [5]) were 0.0078 µg/mL and 0.419 µg/mL, respectively. The IC50 in experiment [2] (setting [6]) came out at 14900 pM.

B4: scFv (TCT1067)-DM1 DAR 3.5 (conjugate)
scFv: SGSGGSGQVQLVQSGAEVKKPGESLKISCKGSGYSFTSYWIAWVRQMPGKGLEYMGLIYPGDSDTKYSPSFQGQVTISVDKSVSTAYLQWSSLKPSDSAVYFCARHDVGYCTDRTCAAWPEWLGVWGQGTLVTVSSGGGGSGGGGSGGGGSQSVLTQPPSVSAAPGQKVTISCSGSSSNIGNNYVSWYQQLPGTAPKLLIYGHTNRPAGVPDRFSGSKSGTSASLAISGFRSEDEADYYCASWDYTLSGWVFGGGTKLTVLMASMTGGQQMG
On to B4, for which the figures for the “IC50 μg/ml” value in experiment [1] (setting [4]) and in experiment [2] (setting [5]) were 0.0417 µg/mL and 0.641 µg/mL, respectively. Also, the IC50 in experiment [1] (SKBr3 Cells (HER2 +++), 96 hours, Table 50, read-out: IC50) was determined as 1490 pM; in experiment [2] (setting [6]), 22900 pM.

B5: scFv (TCT)-P5C5, DAR = 12 (conjugate)
scFv: SGSGGSGQVQLVQSGAEVKKPGESLKISCKGSGYSFTSYWIAWVRQMPGKGLEYMGLIYPGDSDTKYSPSFQGQVTISVDKSVSTAYLQWSSLKPSDSAVYFCARHDVGYCSSSNCAAWPEYFQHWGQGTLVTVSSGGGGSGGGGSGGGGSQSVLTQPPSVSAAPGQKVTISCSGSSSNIGNNYVSWYQQLPGTAPKLLIYGHTNRPAGVPDRFSGSKSGTSASLAISGFRSEDEADYYCAAWDDSLSGWVFGGGTKLTVLMASMTGGQQMG
With B5, the “IC50 μg/ml SKBr3 Cells (HER2+++)” value in experiment [1] (96 hours exposure) was 5.01 ± 1.9 µg/mL. Moreover, the IC50 was found to be 179000 ± 68000 pM in experiment [1] (96 hours exposure, read-out: IC50 nM SKBr3 Cells (HER2+++)) and 3.57e+06 pM in experiment [2] (96 hours exposure, read-out: IC50 nM U87 Cells (HER2−)). For the same molecule, the “IC50 μg/ml U87 Cells (HER2−)” value in experiment [2] (96 hours exposure) stood at 100 µg/mL.
